Experimental findings from patent US11827911B2, “Chimeric bacteriophage lysin with activity against Staphylococci bacteria” (priority 2008, dated 2023) are described below.

In one series the test system is S. aureus 8325-4 cells. The series is described as follows: Spectrophotometric loss of turbidity (OD600) lytic assay. It counts as cell-based, Staphylococcus aureus. The protocol: (§1) The unit activity of ClyS was defined by measuring the spectrophotometric loss of turbidity, indicative of cell lysis, of S. aureus 8325-4 cells upon adding serial dilutions of ClyS. In our assays, 5 micrograms of ClyS corresponded to 1 U of lytic activity. When 50 U of ClyS was added to exponentially growing 8325-4 cells the OD600 dropped to baseline within 5 min (FIG. 7). To confirm that the observed cell lysis corresponds to cell death, staphylococcal viability was determined by enumerating aliquots from the lytic reaction at various time points.
ClyS activity was measured as previously described (Daniel et al, 2001), with some modifications. Briefly, S. aureus strain 8325-4 was grown to an OD600 of 0.25-0.3, centrifuged, and resuspended in PB to a final OD600 of 0.8-1.0. Two-fold serial dilutions of purified ClyS […] were added to 100 μl of bacterial suspension in 96-well plates (Costar) and the decrease in OD600 was monitored by a Spectramax Plus 384 spectrophotometer (Molecular Devices) over 30 min at 37° C. ClyS activity in units per milliliter was defined as the reciprocal of the highest dilution of lysin that decreased the absorbance by 50% in 15 minutes.

In series [1] the test system is S. aureus strains (MSSA and MRSA). Put plainly: Muralytic activity on bacterial strains, Set I. Format: cell-based, Staphylococcus aureus. The following applies: 50 U of ClyS, 15 minutes. On the procedure: (§2) Muralytic activity of ClyS was tested on a number of bacterial strains representing a variety of species which were divided into sets (Table 1 and FIG. 10). Set I consisted of S. aureus strains including methicillin-sensitive S. aureus (MSSA) and MRSA. ClyS was active against MSSA and MRSA although differences were observed between S. aureus strains. Set II consisted of different species of staphylococci including S. epidermidis, S. simulans and S. sciuri. […] Set III consisted of a mix of Gram-positive and Gram-negative bacteria including representatives of group A, B, C and E streptococci, oral streptococcal species including S. gordonli, and S. salivarius, as well as S. uberis, Bacillus cereus, Pseudomonas aeruginosa and E. coli.
The viability assay of ClyS was tested as previously described (Nelson et al, 2001). Briefly, log phase cultures of S. aureus strain 8325-4 were resuspended in PB to OD600 of 0.8-1.0. 50 U of ClyS or the corresponding volume of PB was added to bacterial cells and aliquots were removed, serially diluted, and plated at 1, 5, 10, 30, and 60 minutes to assess the viability of the treated and control cells. All experiments were performed in triplicate. The activity of ClyS on various bacterial strains was tested as described previously (Schuch et al, 2002). Briefly, log phase bacterial cells were treated with 50 U of ClyS at 37° C. for 15 minutes. […]

Series [2] relates to S. epidermidis including the biofilm-forming strain RP62A. The series is described as follows: Muralytic activity on bacterial strains, Set II. It counts as cell-based. The note with it: 50 U of ClyS, 15 minutes. The protocol: as §2
(§3) The viability assay of ClyS was tested as previously described (Nelson et al, 2001). Briefly, log phase cultures of S. aureus strain 8325-4 were resuspended in PB to OD600 of 0.8-1.0. 50 U of ClyS or the corresponding volume of PB was added to bacterial cells and aliquots were removed, serially diluted, and plated at 1, 5, 10, 30, and 60 minutes to assess the viability of the treated and control cells. All experiments were performed in triplicate. The activity of ClyS on various bacterial strains was tested as described previously (Schuch et al, 2002). Briefly, log phase bacterial cells were treated with 50 U of ClyS at 37° C. for 15 minutes. The samples were serially diluted and plated. Control experiments with the addition of phosphate buffer (pH 7.0) were performed under the same conditions.

In the next series the test system is S. simulans. Put plainly: Muralytic activity on bacterial strains, Set II. Format: cell-based. The following applies: 50 U of ClyS, 15 minutes. The protocol:
as §2, §3

In another series the test system is S. sciuri. Put plainly: Muralytic activity on bacterial strains, Set II. It counts as cell-based. The following applies: 50 U of ClyS, 15 minutes. The protocol:
as §2, §3

The test system of series [3] is S. aureus strain 8325-4. The series is described as follows: Viability assay (colony-forming units). Format: cell-based, Staphylococcus aureus. The following applies: 50 U of ClyS, in 30 min. On the procedure:
as §1, §3

In series [4] the test system is S. aureus strain 8325-4. Put plainly: ClyS activity as a function of pH and salt concentration. Format: cell-based, Staphylococcus aureus. The note with it: 50 U, 15 minutes. On the procedure: The effect of pH on ClyS activity was determined as previously described using the universal buffer system pH 4-10 (Yoong et al). Briefly, log phase 8325-4 cells were resuspended in the universal buffer system and incubated with 50 U of ClyS for 15 minutes. The final pH of each reaction was checked by pH paper. The samples were serially diluted and plated. In controls, PB replaced ClyS.
Similarly the effect of salt concentration on the lytic activity of ClyS was determined by incubating 50 U of ClyS with log phase 8325-4 cells in PB containing NaCl at a final concentration of 25-500 mM for 15 minutes. The samples were serially diluted and plated to determine the viability counts.

Another series has as its system VISA strain Mu50. Put plainly: Checkerboard broth-microdilution assay. It counts as cell-based, Staphylococcus aureus. The note with it: VISA strain Mu50. The source says:
(§4) We used the checkerboard broth-microdilution assay to test the interaction of ClyS with vancomycin and with oxacillin. […] Isobolograms for ClyS with vancomycin and ClyS with oxacillin was plotted by transcribing the enzyme concentrations along the inhibitory line on the microtiter plate in an x/y plot.
(In general: Dilution methods test growth across graded concentrations, often in twofold steps.)

A further series concerns MRSA strain COL. The series is described as follows: Checkerboard broth-microdilution assay. Format: cell-based, Staphylococcus aureus.
Text: as §4

The nature of series [5]: Solubility of expressed lysins and chimeras. The protocol: In another embodiment, the lysin is a chimeric protein that comprises an endopeptidase domain of the S. aureus Twort lysin upstream of the phiNM3 CWT domain (SEQ ID NO:1). The chimeric polypeptide is preferably sufficiently soluble in phosphate buffered saline (PBS). Preferred levels of solubility in PBS for the chimeric lysins is at least about 1 mg/ml and more preferably at least about 3 mg/mL. in PBS. […] One example of such a lysin is provided in SEQ ID NO:2 (AD127), shown in FIG. 5A and consisting of the Twort lysin endopeptidase domain attached to the phiNM3 CWT domain (SEQ ID NO:1). The isolated polypeptide of SEQ ID NO:2 (AD 127) was constructed by engineering S. epidermidis autolysin amidase and Twort lysin endopeptidase domains upstream of phiNM3 CWT domain, respectively.
Traditionally, Bacillus-specific lysins are expressed at high levels and are soluble in E. coli. Therefore, our first attempt was to engineer a 16-amino acid peptide (4) that is conserved in several S. aureus-specific lysins (Lu J Z, Fujiwara T, Komatsuzawa H, Sugai M, Sakon J. 2006. Cell wall-targeting domain of glycylglycine endopeptidase distinguishes among peptidoglycan cross-bridges. (Lue et al. (2006) J. Biol. Chem. 281(1):549-58) The catalytic domain of the Bacillus-specific lysin PlyB was used to generate chimera AD 103 (FIG. 4) (SEQ ID NO: 13). The chimeras were tested for expression, solubility and activity. Then the entire C-terminal CWT domain of PlyB (6) was replaced by the putative C-terminal domain of S. aureus phage Twort lysin (8) to obtain AD 105 (SEQ ID NO: 14). […] Since the lysostaphin catalytic domain […] (10) in AD 112 was of bacterial origin, we attempted to engineer a phage-derived catalytic domain upstream of the lysostaphin CWT. For this, the endopeptidase domain in Twort lysin (14) was used to construct chimera AD 119 (SEQ ID NO:3).

Some results are limits rather than exact numbers.

B1: ClyS: chimeric lysin: Twort lysin endopeptidase domain attached to the phiNM3 CWT domain, 280 amino acid residues (protein)
chain: METLKQAESYIKSKVNTGTDFDGLYGYQCMDLAVDYIYHVTDGKIRMWGNAKDAINNSFGGTATVYKNYPAFRPKYGDVVVWTTGNFATYGHIAIVTNPDPYGDLQYVTVLEQNWNGNGIYKTELATIRTHDYTGITHFIRPNFATESSVKKKDTKKKPKPSNRDGLNKDKIVYDRTNINYNMVLQGKSASKITVGSKAPYNLKWSKGAYFNAKIDGLGATSATRYGDNRTNYRFDVGQAVYAPGTLIYVFEIIDGWCRIYWNNHNEWIWHERLIVKEVF
modifications: Chimeric of Staphylococcus aureus bacteriophage Twort domain and Staphylococcus aureus phage phiNM3 CWT domain
notes: chimeric lysin: Twort lysin endopeptidase domain attached to the phiNM3 CWT domain, 280 amino acid residues
On to B1, for which, in the series on S. aureus 8325-4 cells (50 U of ClyS, exponentially growing 8325-4 cells), the “time for OD600 to drop to baseline” value was not above 5 min. Further, the “amount corresponding to 1 U of lytic activity” value in the series on S. aureus 8325-4 cells (unit = reciprocal of highest dilution that decreased absorbance by 50% in 15 minutes) came to 5 micrograms. For the same molecule, in series [1], the “muralytic activity against MRSA” value is given as “active” and the “muralytic activity against MSSA” value was “active”. Moreover, the “muralytic activity against S. epidermidis” value in series [2] is listed as “active”. Moreover, the “muralytic activity against S. simulans” value in the series with S. simulans is “active”. In addition, the “muralytic activity against S. sciuri” value with S. sciuri is listed as “active”. Further, the decrease in viability result in the series on S. aureus strain 8325-4 [3] is on record as “approximately 3 logs”. In the series with S. aureus strain 8325-4 [4], the “activity at physiological pH” value is on record as “partial yet significant activity” and the “activity at physiological salt concentrations” value is reported as “functioned well”. Also, the “NaCl concentration above which activity deteriorated” value in the series with S. aureus strain 8325-4 [4] (25-500 mM NaCl in PB) is given as “above 400 mM”. In the series with VISA strain Mu50, the MIC stood at 6 U/ml. Further, in the series with MRSA strain COL, the MIC is on record as 8 U/ml. The solubility entry in series [5] is listed as “very high”.
